Measured values published in US20220033501A1 (SHANGHAI PHARMAEXPLORER, published 2022).

T1: human TIM-3 on CHOK1 stable cell line (CHOK1-hTIM-3) (human, UniProt Q8TDQ0 22-301)
T1 sequence: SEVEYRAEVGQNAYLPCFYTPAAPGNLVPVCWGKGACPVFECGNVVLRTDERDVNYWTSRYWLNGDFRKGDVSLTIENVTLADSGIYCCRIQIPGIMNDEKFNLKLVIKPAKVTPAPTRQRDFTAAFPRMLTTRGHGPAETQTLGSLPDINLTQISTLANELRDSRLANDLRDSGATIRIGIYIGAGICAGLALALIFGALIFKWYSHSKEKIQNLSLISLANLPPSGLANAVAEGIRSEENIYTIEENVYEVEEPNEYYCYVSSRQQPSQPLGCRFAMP

T2: monkey TIM-3 on CHOK1 stable cell line (CHOK1-cTIM-3) (monkey)
T2 chain: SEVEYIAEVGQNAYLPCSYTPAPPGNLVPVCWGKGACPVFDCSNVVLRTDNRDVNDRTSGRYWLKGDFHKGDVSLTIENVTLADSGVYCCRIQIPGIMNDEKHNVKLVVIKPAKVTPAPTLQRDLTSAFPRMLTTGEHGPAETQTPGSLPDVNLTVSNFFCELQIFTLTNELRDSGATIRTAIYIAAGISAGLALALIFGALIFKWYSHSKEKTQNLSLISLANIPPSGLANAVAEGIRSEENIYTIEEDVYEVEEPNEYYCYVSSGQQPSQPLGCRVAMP

T3: human TIM-3 extracellular domain protein with hFc tag (hTIM-3-hFc) (human, UniProt Q8TDQ0 22-200)
T3 construct: not shown: human IgG Fc fragment (hFc) of the pCpC vector
T3 sequence: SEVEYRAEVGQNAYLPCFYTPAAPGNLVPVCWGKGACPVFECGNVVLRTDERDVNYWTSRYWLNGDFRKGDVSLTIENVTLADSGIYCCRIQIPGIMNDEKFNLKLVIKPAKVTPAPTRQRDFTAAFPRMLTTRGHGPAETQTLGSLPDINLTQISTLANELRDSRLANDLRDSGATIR

T4: murine TIM-3 extracellular domain protein with hFc tag (mTIM-3-hFc) (mouse, UniProt Q8VIM0 29-191)
T4 construct: also called mouse TIM-3 extracellular domain protein; not shown: human IgG Fc fragment (hFc) of the pCpC vector
T4 chain: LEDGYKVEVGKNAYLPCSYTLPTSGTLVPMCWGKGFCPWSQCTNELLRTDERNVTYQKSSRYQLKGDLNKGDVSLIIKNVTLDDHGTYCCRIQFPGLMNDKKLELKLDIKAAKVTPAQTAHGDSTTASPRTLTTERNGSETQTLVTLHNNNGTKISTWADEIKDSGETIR

T5: murine TIM-3 protein with hFc tag (mTIM-3-hFc protein) (mouse; human, UniProt Q8VIM0 29-191)
T5 construct: Made in HEK293 cells; also called mouse TIM-3 extracellular domain protein; not shown: human IgG Fc fragment (hFc) of the pCpC vector
T5 chain: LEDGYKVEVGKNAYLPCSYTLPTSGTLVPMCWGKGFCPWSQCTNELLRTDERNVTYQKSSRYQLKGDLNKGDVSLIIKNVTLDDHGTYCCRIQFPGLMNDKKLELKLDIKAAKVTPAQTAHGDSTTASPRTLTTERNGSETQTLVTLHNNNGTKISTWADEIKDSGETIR


Legend:
[1] = target: T1, human TIM-3 on CHOK1 stable cell line …; assay: FACS, CHOK1-hTIM-3 cells, 0 nM antibody
[2] = target: T2, monkey TIM-3 on CHOK1 stable cell line …; assay: FACS, CHOK1-cTIM-3 cells, 0.013 nM antibody
[3] = target: T3, human TIM-3 extracellular domain …; assay: ELISA, coated human TIM-3 ECD protein, 0.6667 nM antibody
[4] = target: T4, murine TIM-3 extracellular domain …; assay: ELISA, coated mouse TIM-3 ECD protein, 0.0001 nM antibody
[5] = target: T1, human TIM-3 on CHOK1 stable cell line …; assay: FACS, CHOK1-hTIM-3 cells, 0.013 nM antibody
[6] = target: T4, murine TIM-3 extracellular domain …; assay: ELISA, coated mouse TIM-3 ECD protein, 0.0007 nM antibody
[7] = target: T5, murine TIM-3 protein with hFc tag …; assay: ELISA, coated mTIM-3-hFc; antibody 0.6667 nM
Excerpt: (§1) The amino acid sequence 22-200 of the extracellular domain of the human TIM-3 protein described in the step of Example 1 (as shown in SEQ ID NO. 71 in the sequence listing) was cloned into a pCpC vector having a human IgG Fc fragment (hFc), and transfected into HEK293 cells. The cell culture medium was collected, and purified to obtain the human TIM-3 protein with hFc tag (herein referred to as hTIM-3-hFc protein). The amino acid sequence 22-201 of the extracellular domain of the monkey TIM-3 protein (as shown in SEQ ID NO. 72 in the sequence listing) was cloned into a pCpC vector having a human IgG Fc fragment (hFc), and transfected into HEK293 cells. The cell culture medium was collected, and purified to obtain the monkey TIM-3 protein with hFc tag (herein referred to as cTIM-3-hFc protein). […] The cell culture medium was collected, and purified to obtain the murine TIM-3 protein with hFc tag (herein referred to as mTIM-3-hFc protein). Purified human, monkey, and mouse TIM-3 extracellular domain proteins (hTIM-3-hFc, cTIM-3-hFc, and mTIM-3-hFc) were diluted with PBS to a final concentration of 1.0 μg/ml and then added to a 96-well ELISA plate with 100 μl per well. The plate was sealed with plastic film and incubated overnight at 4° C. The plate was washed 4 times with the plate washing solution (PBS+0.01% Tween20) on the next day, and added with the blocking solution (PBS+0.01% Tween20+1% BSA) and sealed at room temperature for 1-2 hours. The blocking solution was poured out. 50-100 μl of the antibody sample to be tested was added to each well. The plate was incubated at 37° C. for 1-2 hours, and washed 2-3 times with plate washing solution (PBS+0. 01% Tween20). HRP (horseradish peroxidase) labeled secondary antibody was added. The plate was incubated at 37° C. for 1-2 hours, and washed 2-3 times with plate washing solution (PBS+0. 01% Tween20). […] of TMB substrate was added to each well. After incubated at room temperature for 15-30 minutes, the plate was added with […] stop solution (1.0N HCl) to each well. An ELISA plate reader (TiterMax 384plus, Molecular Device) was used to read the A450 nm value.

[8] = target: T5, murine TIM-3 protein with hFc tag …; assay: ELISA, coated mTIM-3-hFc
[9] = target: T5, murine TIM-3 protein with hFc tag …; assay: ELISA, coated mTIM-3-hFc; antibody 6.6667 nM
Excerpt: as §1

Binder | Mean fluorescence intensity [1] | Mean fluorescence intensity [2] | OD450 [3] | OD450 [4] | Mean fluorescence intensity [5] | OD450 [6] | OD450 [7] | binding result [8] | OD450 [9]
57F4E5 fully human TIM-3 antibody (human IgG4, kappa) (antibody, V domains shown) VH: EVQLVESGGGLVQPGGSLRLSCAASGFTFSSYWMSWVRQAPGKGLEWVANIKQDGSEKYYVDSVKGRFTISRDSAKNSLYLQMNSLRAEDTAMYFCARDSNFFDYWGQGTLVTVSS VL: ETVMTQSPATLSVSPGERATLSCRASQSVSSNLAWYQRKPGQAPRLLIYFSSTRATGIPARFSGSGSGTEFTLTISSLQSEDFAVYYCQQYNNWPLTFGGGTKVEIK | 2.9 | 11.4 | 2.89 | 0.24 | 9.6 | 0.23 |  |  | 
57F4E5 (TIM-3 antibody purified from hybridoma, chimeric antibody of Example 2) (antibody, V domains shown, From hybridoma of Harbour H2L2 transgenic mice: human variable regions, rat constant regions) VH: EVQLVESGGGLVQPGGSLRLSCAASGFTFSSYWMSWVRQAPGKGLEWVANIKQDGSEKYYVDSVKGRFTISRDSAKNSLYLQMNSLRAEDTAMYFCARDSNFFDYWGQGTLVTVSS VL: ETVMTQSPATLSVSPGERATLSCRASQSVSSNLAWYQRKPGQAPRLLIYFSSTRATGIPARFSGSGSGTEFTLTISSLQSEDFAVYYCQQYNNWPLTFGGGTKVEIK |  |  |  |  |  |  | 0.64 | no binding (tested: 66.667 nM) | 0.69
18D2H2 (TIM-3 antibody purified from hybridoma, chimeric antibody of Example 2) (antibody, V domains shown, From hybridoma of Harbour H2L2 transgenic mice: human variable regions, rat constant regions) VH: EVQLVESGGDLVQPGGSLRLSCAASGFTFSTYWMTWVRQAPGRGLEWVANIKQDGSAKYYVDSVKGRFTLSRDDAKNSLYLQMNSLRAEDTAVYYCARGSNWFDYWGQGTLVTVSS VL: ETVMTQSPATLSVSPGERATLSCRANQNVYSNLAWYQQKPGQAPRLLIYDASTRATGFPARFSGSGSGTEFTLTISSLQSEDFAVYYCQQYNNWPLTFGGGTKVEIK |  |  |  |  |  |  | 0.66 | no binding (tested: 66.667 nM) | 0.69
39E5H1 (TIM-3 antibody purified from hybridoma, chimeric antibody of Example 2) (antibody, V domains shown, From hybridoma of Harbour H2L2 transgenic mice: human variable regions, rat constant regions) VH: EVQLVESGGGLVQPGGSLRLSCAASGFTFSSYWMSWVRQAPGKGLEWVANIKRGGSERYYVDSVKGRFTISGDNAKNSVYLQMNSLRAEDTAVYYCARGSNWFDPWGQGTLVTVSS VL: ETVMTQSPAILSVSPGERATLSCRASQSVYSNLAWYQQKLGQAPRLLIYDASTRATGIPARFSGSGSGTEFTLTISSLQSEDFAVYYCQQYNNWPITFGQGTRLEIK |  |  |  |  |  |  | 0.66 | no binding (tested: 66.667 nM) | 0.68
7A4F10 fully human TIM-3 antibody (human IgG4, kappa) (antibody, V domains shown) VH: EVQLLESGGGLVQPGGSLRLSCAASGFTFRTHLISWVRQAPGKGLEWVAAITGSGGSTYYADSVKGRFIISRDNSKNTLFLQMNSLRAEDTAVYYCAKDGGSGSYDDFWGQGTLVTVSS VL: ETVLTQSPVTLSLSPGERATLSCRASQSVGSYLAWYQQKPGQAPRLLIYDASNRATGIPARFSGSGSGTDFTLTISSLEPEDFAVYYCQQRSNWPPTFGQGTKVEIK | 2.8 | 7.1 | 2.75 | 0.22 | 9.7 | 0.22 |  |  | 
7A4F10 (TIM-3 antibody purified from hybridoma, chimeric antibody of Example 2) (antibody, V domains shown, From hybridoma of Harbour H2L2 transgenic mice: human variable regions, rat constant regions) VH: EVQLLESGGGLVQPGGSLRLSCAASGFTFRTHLISWVRQAPGKGLEWVAAITGSGGSTYYADSVKGRFIISRDNSKNTLFLQMNSLRAEDTAVYYCAKDGGSGSYDDFWGQGTLVTVSS VL: ETVLTQSPVTLSLSPGERATLSCRASQSVGSYLAWYQQKPGQAPRLLIYDASNRATGIPARFSGSGSGTDFTLTISSLEPEDFAVYYCQQRSNWPPTFGQGTKVEIK |  |  |  |  |  |  | 0.67 | no binding (tested: 66.667 nM) | 0.67
34B6D8 (TIM-3 antibody purified from hybridoma, chimeric antibody of Example 2) (antibody, V domains shown, From hybridoma of Harbour H2L2 transgenic mice: human variable regions, rat constant regions) VH: EVQLVESGGGLVQPGGSLRLSCAASGFTFSTYWMTWVRQAPGKRLEWVANIKQGGGDKYYVDSVKGRFTISTDNAKNSLYLQMNSLRAEDTAVYYCARGSNWFDPWGQGTLVTVSS VL: EIVMTQSPATLSMSPGERATLSCRASQSVYDNLAWYQQKPGQAPRLLIYGASTRATGIPARFSGSGSGTEFTLTISSLQSEDFALYYCQQYTHWPITFGQGTRLEIK |  |  |  |  |  |  | 0.65 | no binding (tested: 66.667 nM) | 0.74

Now from value to binder:

Mean fluorescence intensity [1] | Mean fluorescence intensity [2] | OD450 [3] | OD450 [4] | Mean fluorescence intensity [5] | OD450 [6] | OD450 [7] | binding result [8] | OD450 [9] | Binder
2.8 | 16.8 | 2.74 | 0.22 | 13.5 | 0.21 |  |  |  | 134H3G6 fully human TIM-3 antibody (human IgG4, kappa) (antibody, V domains shown) VH: EVQLVESGGGLVQPGGSLRLSCAASGFTFSNSWMTWVRQAPGKGLEWVANIKQAGTEKYYVDSVKGRFTISRDNAKNSLYLQMNSLRAEDTAVYYCNSGSNYFDYWGQGTLVTVSS VL: EIVMTQSPATLSVSPGERATLSCRARQNFYSNLAWYQQKPGQAPRLLIYGASTRATGIPARFSGSGSGTEFTLTISSLQSEDFAVYYCQQYNNWPLTFGGGTKVEIK
 |  |  |  |  |  | 0.66 | no binding (tested: 66.667 nM) | 0.67 | 134H3G6 (TIM-3 antibody purified from hybridoma, chimeric antibody of Example 2) (antibody, V domains shown, From hybridoma of Harbour H2L2 transgenic mice: human variable regions, rat constant regions) VH: EVQLVESGGGLVQPGGSLRLSCAASGFTFSNSWMTWVRQAPGKGLEWVANIKQAGTEKYYVDSVKGRFTISRDNAKNSLYLQMNSLRAEDTAVYYCNSGSNYFDYWGQGTLVTVSS VL: EIVMTQSPATLSVSPGERATLSCRARQNFYSNLAWYQQKPGQAPRLLIYGASTRATGIPARFSGSGSGTEFTLTISSLQSEDFAVYYCQQYNNWPLTFGGGTKVEIK
2.9 | 11.5 | 2.88 | 0.21 | 8.2 | 0.21 |  |  |  | 215A8F2 fully human TIM-3 antibody (human IgG4, kappa) (antibody, V domains shown) VH: QVQLQQWGAGLLKPSETLSLTCTVYGGSFSGYYWNWIRQPPGKGLEWLGEINHSGSTNYNPSLKRRVTISVDTSKNQFSLKLSSVTAADTAVYYCARVYYYGPFDFWGQGTLVTVSS VL: not shown
 |  |  |  |  |  | 0.65 | no binding (tested: 66.667 nM) | 0.68 | 215A8F2 (TIM-3 antibody purified from hybridoma, chimeric antibody of Example 2) (antibody, V domains shown, From hybridoma of Harbour H2L2 transgenic mice: human variable regions, rat constant regions) VH: QVQLQQWGAGLLKPSETLSLTCTVYGGSFSGYYWNWIRQPPGKGLEWLGEINHSGSTNYNPSLKRRVTISVDTSKNQFSLKLSSVTAADTAVYYCARVYYYGPFDFWGQGTLVTVSS VL: not shown
